Measurements reported in patent US20200165325A1.

Experiments:
[1] = target: Env (gp120) of HIV-1 strain R2184.c04 (HIV-1)
[2] = target: Env (gp120) of HIV-1 strain P1981_C5_3 (HIV-1)
[3] = target: Env (gp120) of HIV-1 strain T251-18 (HIV-1)
[4] = target: Env (gp120) of HIV-1 strain Du422.1 (HIV-1)
[5] = target: Env (gp120) of HIV-1 strain 62357_14_D3_4589 (HIV-1)
[6] = target: Env (gp120) of HIV-1 strain Q769.d22 (HIV-1)
[7] = target: Env (gp120) of HIV-1 strain TRJO4551.58 (HIV-1)
[8] = target: Env (gp120) of HIV-1 strain 3718.v3.c11 (HIV-1)
[9] = target: Env (gp120) of HIV-1 strain RHPA4259.7 (HIV-1)
[10] = target: Env (gp120) of HIV-1 strain Ce1176_A3 (HIV-1)
[11] = target: Env (gp120) of HIV-1 strain SC422661.8 (HIV-1)
[12] = target: Env (gp120) of HIV-1 strain CNE20 (HIV-1)
[13] = target: Env (gp120) of HIV-1 strain 928-28 (HIV-1)
[14] = target: Env (gp120) of HIV-1 strain ZM233M.PB6 (HIV-1)
[15] = target: Env (gp120) of HIV-1 strain 0330.v4.c3 (HIV-1)
[16] = target: Env (gp120) of HIV-1 strain C3347.c11 (HIV-1)
[17] = target: Env (gp120) of HIV-1 strain Q259.d2.17 (HIV-1)
[18] = target: Env (gp120) of HIV-1 strain CNE17 (HIV-1)
[19] = target: Env (gp120) of HIV-1 strain C2101.c01 (HIV-1)
[20] = target: Env (gp120) of HIV-1 strain Ce703010054_2A2 (HIV-1)
[21] = target: Env (gp120) of HIV-1 strain AC10.0.29 (HIV-1)
[22] = target: Env (gp120) of HIV-1 strain 89-F1_2_25 (HIV-1)
[23] = target: Env (gp120) of HIV-1 strain ZM214M.PL15 (HIV-1)
[24] = target: Env (gp120) of HIV-1 strain 620345.c01 (HIV-1)
[25] = target: Env (gp120) of HIV-1 strain 3817.v2.c59 (HIV-1)
[26] = target: Env (gp120) of HIV-1 strain T255-34 (HIV-1)
[27] = target: Env (gp120) of HIV-1 strain Ce2010_F5 (HIV-1)
[28] = target: Env (gp120) of HIV-1 strain 1054_07_TC4_1499 (HIV-1)
[29] = target: Env (gp120) of HIV-1 strain ZM109F.PB4 (HIV-1)
[30] = target: Env (gp120) of HIV-1 strain X1193_c1 (HIV-1)
[31] = target: Env (gp120) of HIV-1 strain CNE21 (HIV-1)
[32] = target: Env (gp120) of HIV-1 strain 703357.C02 (HIV-1)
[33] = target: Env (gp120) of HIV-1 strain Q461.e2 (HIV-1)
[34] = target: Env (gp120) of HIV-1 strain ZM53M.PB12 (HIV-1)
[35] = target: Env (gp120) of HIV-1 strain 0815.v3.c3 (HIV-1)
[36] = target: Env (gp120) of HIV-1 strain 231966.c02 (HIV-1)
[37] = target: Env (gp120) of HIV-1 strain PVO.4 (HIV-1)
[38] = target: Env (gp120) of HIV-1 strain Du156.12 (HIV-1)
[39] = target: Env (gp120) of HIV-1 strain CAAN5342.A2 (HIV-1)
[40] = target: Env (gp120) of HIV-1 strain CNE53 (HIV-1)
[41] = target: Env (gp120) of HIV-1 strain X2131_C1_B5 (HIV-1)
[42] = target: Env (gp120) of HIV-1 strain CNE58 (HIV-1)
[43] = target: Env (gp120) of HIV-1 strain Q23.17 (HIV-1)
[44] = target: Env (gp120) of HIV-1 strain ZM247v1(Rev-) (HIV-1)
[45] = target: Env (gp120) of HIV-1 strain HIV-16845-2.22 (HIV-1)
[46] = target: Env (gp120) of HIV-1 strain X1254_c3 (HIV-1)
[47] = target: Env (gp120) of HIV-1 strain 6480.v4.c25 (HIV-1)
[48] = target: Env (gp120) of HIV-1 strain REJO4541.67 (HIV-1)
[49] = target: Env (gp120) of HIV-1 strain 231965.c01 (HIV-1)
[50] = target: Env (gp120) of HIV-1 strain 3103.v3.c10 (HIV-1)

NIH45-46 IgG (antibody) gave a neutralization IC50 [1] of 0.034 µg/mL, a neutralization IC50 [2] of 0.08 µg/mL and a neutralization IC50 [3] of 1.35 µg/mL. The neutralization IC50 [4] was > 50 µg/mL, the neutralization IC50 [5] was 0.06 µg/mL and the neutralization IC50 [6] was 0.009 µg/mL. It also gave a neutralization IC50 [7] of 0.04 µg/mL, a neutralization IC50 [8] of 19.6 µg/mL and a neutralization IC50 [9] of 0.017 µg/mL. The neutralization IC50 [10] was 0.93 µg/mL, the neutralization IC50 [11] was 0.06 µg/mL and the neutralization IC50 [12] was 7.83 µg/mL. The neutralization IC50 [13] was 0.23 µg/mL, the neutralization IC50 [14] was 2.5 µg/mL and the neutralization IC50 [15] was 0.09 µg/mL. It also gave a neutralization IC50 [16] of 0.029 µg/mL, a neutralization IC50 [17] of 0.043 µg/mL and a neutralization IC50 [18] of 0.261 µg/mL. For the same substance, the neutralization IC50 [19] was 4.24 µg/mL, the neutralization IC50 [20] was 0.159 µg/mL and the neutralization IC50 [21] was 0.56 µg/mL. The neutralization IC50 [22] was > 50 µg/mL, the neutralization IC50 [23] was 0.17 µg/mL and the neutralization IC50 [24] was > 50 µg/mL. The neutralization IC50 [25] was > 50 µg/mL, the neutralization IC50 [26] was 0.71 µg/mL and the neutralization IC50 [27] was 0.101 µg/mL. For the same substance, the neutralization IC50 [28] was 0.113 µg/mL, the neutralization IC50 [29] was 0.095 µg/mL and the neutralization IC50 [30] was 0.021 µg/mL. For the same substance, the neutralization IC50 [31] was 6.01 µg/mL, the neutralization IC50 [32] was 19.2 µg/mL and the neutralization IC50 [33] was 0.076 µg/mL. It also gave a neutralization IC50 [34] of 0.175 µg/mL, a neutralization IC50 [35] of 0.014 µg/mL and a neutralization IC50 [36] of 1.64 µg/mL. For the same substance, the neutralization IC50 [37] was 0.12 µg/mL, the neutralization IC50 [38] was 0.02 µg/mL and the neutralization IC50 [39] was 0.15 µg/mL. It also gave a neutralization IC50 [40] of 0.008 µg/mL, a neutralization IC50 [41] of 0.23 µg/mL and a neutralization IC50 [42] of 0.43 µg/mL. The neutralization IC50 [43] was 0.14 µg/mL, the neutralization IC50 [44] was 2.94 µg/mL and the neutralization IC50 [45] was 5 µg/mL. It also gave a neutralization IC50 [46] of 0.032 µg/mL, a neutralization IC50 [47] of 0.032 µg/mL and a neutralization IC50 [48] of 0.014 µg/mL. It also gave a neutralization IC50 [49] of 0.051 µg/mL and a neutralization IC50 [50] of 1.77 µg/mL.
Work on NIH45-46^G54F IgG (antibody) yielded a neutralization IC50 [1] of 0.015 µg/mL, a neutralization IC50 [2] of 0.03 µg/mL and a neutralization IC50 [3] of 0.41 µg/mL. The neutralization IC50 [4] was > 50 µg/mL, the neutralization IC50 [5] was 0.04 µg/mL and the neutralization IC50 [6] was 0.005 µg/mL. The neutralization IC50 [7] was 0.03 µg/mL, the neutralization IC50 [8] was 0.32 µg/mL and the neutralization IC50 [9] was 0.005 µg/mL. It also gave a neutralization IC50 [10] of 0.24 µg/mL, a neutralization IC50 [11] of 0.04 µg/mL and a neutralization IC50 [12] of 0.53 µg/mL. It also gave a neutralization IC50 [13] of 0.11 µg/mL, a neutralization IC50 [14] of 0.22 µg/mL and a neutralization IC50 [15] of 0.04 µg/mL. It also gave a neutralization IC50 [16] of 0.015 µg/mL, a neutralization IC50 [17] of 0.009 µg/mL and a neutralization IC50 [18] of 0.075 µg/mL. The neutralization IC50 [19] was 0.11 µg/mL, the neutralization IC50 [20] was 0.02 µg/mL and the neutralization IC50 [21] was 0.24 µg/mL. For the same substance, the neutralization IC50 [22] was > 50 µg/mL, the neutralization IC50 [23] was 0.09 µg/mL and the neutralization IC50 [24] was > 50 µg/mL. The neutralization IC50 [25] was > 50 µg/mL, the neutralization IC50 [26] was 0.03 µg/mL and the neutralization IC50 [27] was 0.046 µg/mL. For the same substance, the neutralization IC50 [28] was 0.076 µg/mL, the neutralization IC50 [29] was 0.022 µg/mL and the neutralization IC50 [30] was < 0.001 µg/mL. The neutralization IC50 [31] was 0.12 µg/mL, the neutralization IC50 [32] was 7.91 µg/mL and the neutralization IC50 [33] was 0.03 µg/mL. For the same substance, the neutralization IC50 [34] was 0.08 µg/mL, the neutralization IC50 [35] was < 0.001 µg/mL and the neutralization IC50 [36] was 0.06 µg/mL. For the same substance, the neutralization IC50 [37] was 0.07 µg/mL, the neutralization IC50 [38] was < 0.001 µg/mL and the neutralization IC50 [39] was 0.1 µg/mL. The neutralization IC50 [40] was 0.005 µg/mL, the neutralization IC50 [41] was 0.1 µg/mL and the neutralization IC50 [42] was 0.04 µg/mL. It also gave a neutralization IC50 [43] of 0.03 µg/mL, a neutralization IC50 [44] of 0.28 µg/mL and a neutralization IC50 [45] of 0.59 µg/mL. The neutralization IC50 [46] was 0.011 µg/mL, the neutralization IC50 [47] was 0.014 µg/mL and the neutralization IC50 [48] was 0.007 µg/mL. It also gave a neutralization IC50 [49] of 0.022 µg/mL and a neutralization IC50 [50] of 0.37 µg/mL.
